Numbering of substitutions follows the chain as printed. In names and notes the source's numbering stands. Where no end group is shown, it is not given here.
Experiments:
[1] = target: T1, biotin-labeled human CD137 fused to human IgG1 Fc fragment (human CD137-Fc) (human, biotin-labeled); test: competitive bead ELISA, biotin-human CD137-Fc on beads; free CD3e 62.5 pmol against free Fc 62.5 pmol
T1 construct: also called biotin-human CD137-Fc

[2] = target: T1, biotin-labeled human CD137 fused to …; test: competitive bead ELISA, biotin-human CD137-Fc on beads, 100 ng IgG, competitor free CD3 epsilon peptide 62.5 pmol
[3] = target: T1, biotin-labeled human CD137 fused to …; test: competitive bead ELISA, biotin-human CD137-Fc on beads, 100 ng IgG, control competitor free human Fc 62.5 pmol
[4] = target: T2, biotin-labeled CD3 epsilon peptide antigen (human, also: biotin-labeled, position not given here); test: bead ELISA, biotin-CD3 epsilon peptide on streptavidin beads, 100 ng IgG
T2 construct: Peptide of CD3 epsilon; also called CD3 peptide
T2 peptide: QDGNEEMGGITQTPY

[5] = target: T3, CD3 epsilon homodimer protein (UniProt P07766 23-126); test: SPR, Biacore T200, CD3 epsilon homodimer immobilized on CM4, one-arm antibody as analyte, 25 degrees C
T3 construct: also called CD3 (CD3 epsilon)

[6] = target: T4, biotin-labeled cynomolgus monkey CD137 fused to human IgG1 Fc fragment (cynomolgus monkey, UniProt Q07011 24-186 (human entry), limits assumed, biotin-labeled); test: bead ELISA (chemiluminescence), purified IgG on biotin labeled cyno CD137-Fc on streptavidin beads
T4 construct: also called cyno CD137-Fc; not shown: human IgG1 Fc fragment
T4 chain: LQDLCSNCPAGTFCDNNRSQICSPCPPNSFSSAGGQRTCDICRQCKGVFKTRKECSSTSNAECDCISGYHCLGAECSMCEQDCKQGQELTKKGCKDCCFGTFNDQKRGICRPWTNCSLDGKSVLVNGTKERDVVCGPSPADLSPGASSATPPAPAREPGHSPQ

[7] = target: T5, biotin-labeled human CD137 fused to human IgG1 Fc fragment (human, biotin-labeled); test: bead ELISA; RLU on human CD137-Fc divided by RLU on human Fc
T5 construct: also called human CD137-Fc; biotin-human CD137-Fc

[8] = target: T4, biotin-labeled cynomolgus monkey CD137 …; test: bead ELISA; RLU on cyno CD137-Fc divided by RLU on human Fc
[9] = target: T5, biotin-labeled human CD137 fused to …; test: bead ELISA (chemiluminescence), purified IgG on biotin labeled human CD137-Fc on streptavidin beads

B1: DADU01_3#001 (antibody, human IgG1, V domains shown)
VH: QVQLVESGGGLVQPGRSLRLSCAASGFTFSIAWMHWVRQAPGKGLEWVAQIKDRVNAYEAYYAPSVKGRFTISRDDSKNSIYLQMNSLKTEDTAVYYCRYVHYASYYDLLGYGGVDAWGQGTTVTVSS
VL: DIVMTQSPLSLPVTPGEPASISCRSSQSLVHSNRNTYLHWYQQKPGQAPRLLIYKVSNRFSGVPDRFSGSGSGTDFTLKISRVEAEDVGVYYCGQGTQVPYTFGQGTKLEIKR
notes: also called dBBDu_126; dBBDu126
Signal decrease [1]: 81.3% | ELISA signal with Free CD3e 62.5 pmol [2]: 15100 | ELISA signal with Free Fc 62.5 pmol [3]: 81000 | RLU, CD3 peptide [4]: 198000 RLU | S/N ratio CD3 peptide/non coating [4]: 146

B2: anti-human CD137 antibody described in WO2005/035584A1 (abbreviated as B) (antibody, V domains shown)
VH: QVQLQQWGAGLLKPSETLSLTCAVYGGSFSGYYWSWIRQSPEKGLEWIGEINHGGYVTYNPSLESRVTISVDTSKNQFSLKLSSVTAADTAVYYCARDYGPGNYDWYFDLWGRGTLVTVSS
VL: EIVLTQSPATLSLSPGERATLSCRASQSVSSYLAWYQQKPGQAPRLLIYDASNRATGIPARFSGSGSGTDFTLTISSLEPEDFAVYYCQQRSNWPPALTFGGGTKVEIK
notes: Control antibody; also called control anti-CD137 antibody
Signal decrease [1]: 0.94% | ELISA signal with Free CD3e 62.5 pmol [2]: 183000 | ELISA signal with Free Fc 62.5 pmol [3]: 184000

B3: L chain one-amino acid altered form of GLS3000, G to Y at Kabat position 89 (one-arm antibody: CE115HA000-pE22Hh / Kn010G3 / altered GLS3000-kappa) (antibody, human IgG1, kappa, L234A L235A, N297A, name in Kabat numbering)
heavy: QVQLVESGGGVVQPGRSLRLSCAASGFTFSNAWMHWVRQAPGKGLEWVAQIKAKSNNYATYYAESVKGRFTISRDDSKNSLYLQMNSLKTEDTAVYYCRYVHYGAYYGVDAWGQGTTVTVSSASTKGPSVFPLAPSSKSTSGGTAALGCLVKDYFPEPVTVSWNSGALTSGVHTFPAVLQSSGLYSLSSVVTVPSSSLGTQTYICNVNHKPSNTKVDKKVEPKSCDKTHTCPPCPAPEAAGGPSVFLFPPKPKDTLMISRTPEVTCVVVDVSHEDPEVKFNWYVDGVEVHNAKTKPREEQYASTYRVVSVLTVLHQDWLNGKEYKCKVSNKALPAPIEKTISKAKGQPREPQVYTLPPSRCELTKNQVSLSCAVKGFYPSDIAVEWESNGQPENNYKTTPPVLDSDGSFFLVSKLTVDKSRWQQGNVFSCSVMHEALHNHYTQKSLSLSPDYKDDDDK
chain: EPKSSDKTHTCPPCPAPELLGGPSVFLFPPKPKDTLMISRTPEVTCVVVDVSHEDPEVKFNWYVDGVEVHNAKTKPREEQYNSTYRVVSVLTVLHQDWLNGKEYKCKVSNKALPAPIEKTISKAKGQPREPQVCTLPPSRDELTKNQVSLWCLVKGFYPSDIAVEWESNGQPENNYKTTPPVLDSDGSFFLYSKLTVDKSRWQQGNVFSCSVMHEALHNRYTQKSLSLSP
light: DIVMTQSPLSLPVTPGEPASISCRSSQSLVHSNRNTYLHWYQQKPGQAPRLLIYKVSNRFSGVPDRFSGSGSGTDFTLKISRVEAEDVGVYYCYQGTQVPYTFGQGTKLEIKRTVAAPSVFIFPPSDEQLKSGTASVVCLLNNFYPREAKVQWKVDNALQSGNSQESVTEQDSKDSTYSLSSTLTLSKADYEKHKVYACEVTHQGLSSPVTKSFNRGEC
notes: One-arm antibody (IgG lacking one Fab); also called GLS3000 G89Y
ratio of amounts bound (Z = Y/X) against the unaltered GLS3000 antibody [5]: 1.19

B4: L chain one-amino acid altered form of GLS3000, Q to Y at Kabat position 90 (one-arm antibody: CE115HA000-pE22Hh / Kn010G3 / altered GLS3000-kappa) (antibody, human IgG1, kappa, L234A L235A, N297A, name in Kabat numbering)
heavy: B3 heavy
chain: B3 chain
light: B3 light with Y94G, Q95Y
notes: One-arm antibody (IgG lacking one Fab); also called GLS3000 Q90Y
ratio of amounts bound (Z = Y/X) against the unaltered GLS3000 antibody [5]: 0.17

B5: L chain one-amino acid altered form of GLS3000, G to Y at Kabat position 91 (one-arm antibody: CE115HA000-pE22Hh / Kn010G3 / altered GLS3000-kappa) (antibody, human IgG1, kappa, L234A L235A, N297A, name in Kabat numbering)
heavy: B3 heavy
chain: B3 chain
light: B3 light with Y94G, G96Y
notes: One-arm antibody (IgG lacking one Fab); also called GLS3000 G91Y
ratio of amounts bound (Z = Y/X) against the unaltered GLS3000 antibody [5]: 0.17

B6: DADU01_3#002 (antibody, human IgG1, V domains shown)
VH: QVQLVESGGGLVQPGRSLRLSCAASGFTFSNAWMHWVRQAPGKGLEWVAQIKDKQNLYNAYYAESVKGRFTISRDDSKNSIYLQMNSLKTEDTAVYYCHYVHYASASTVLPAFGVDAWGQGTTVTVSS
VL: DIVMTQSPLSLPVTPGEPASISCRSSQSLVHSNRNTYLHWYQQKPGQAPRLLIYKVSNRFSGVPDRFSGSGSGTDFTLKISRVEAEDVGVYYCGQGTQVPYTFGQGTKLEIK
notes: IgG: VH joined to human IgG1 CH1-Fc; also called dBBDu124
RLU [6]: 10800 RLU | S/N ratio human CD137-Fc/Fc [7]: 20.3 | S/N ratio cyno CD137-Fc/Fc [8]: 5.6 | RLU [9]: 39100 RLU

B7: DADU01_3#002 (antibody, human IgG1, V domains shown)
VH: B6 VH
VL: B1 VL
notes: also called dBBDu124
Signal decrease [1]: 93.6% | ELISA signal with Free CD3e 62.5 pmol [2]: 9970 | ELISA signal with Free Fc 62.5 pmol [3]: 155000 | RLU, CD3 peptide [4]: 174000 RLU | S/N ratio CD3 peptide/non coating [4]: 156

B8: DADU01_3#001 (antibody, human IgG1, V domains shown)
VH: B1 VH
VL: B6 VL
notes: IgG: VH joined to human IgG1 CH1-Fc; also called dBBDu_126; dBBDu126
RLU [6]: 1210 RLU | S/N ratio human CD137-Fc/Fc [7]: 54.1 | S/N ratio cyno CD137-Fc/Fc [8]: 0.687 | RLU [9]: 95300 RLU

B9: DADU01_3#018 (antibody, human IgG1, V domains shown)
VH: B6 VH with K54R, Q55A, L57S, E64P, A104S, S105A, V109L, A112S
VL: B6 VL
notes: IgG: VH joined to human IgG1 CH1-Fc; also called dBBDu123
RLU [6]: 6200 RLU | S/N ratio human CD137-Fc/Fc [7]: 17.3 | S/N ratio cyno CD137-Fc/Fc [8]: 3.27 | RLU [9]: 32800 RLU

B10: DXDU01_3#051 (antibody, human IgG1, V domains shown)
VH: B6 VH with K54R, Q55G, N56Q, L57Q, E64P, T108S, A112G, F113Y
VL: B1 VL
notes: also called dBBDu127
Signal decrease [1]: 91.6% | ELISA signal with Free CD3e 62.5 pmol [2]: 10800 | ELISA signal with Free Fc 62.5 pmol [3]: 128000 | RLU, CD3 peptide [4]: 169000 RLU | S/N ratio CD3 peptide/non coating [4]: 145

B11: DXDU01_3#051 (antibody, human IgG1, V domains shown)
VH: B6 VH with K54R, Q55G, N56Q, L57Q, E64P, T108S, A112G, F113Y
VL: B6 VL
notes: IgG: VH joined to human IgG1 CH1-Fc; also called dBBDu127
RLU [6]: 10900 RLU | S/N ratio human CD137-Fc/Fc [7]: 13.1 | S/N ratio cyno CD137-Fc/Fc [8]: 3.73 | RLU [9]: 38100 RLU

B12: DXDU01_3#019 (antibody, human IgG1, V domains shown)
VH: B1 VH with R54K, A57G, E59T, P64E, S105A, L109V
VL: B1 VL
notes: also called dBBDu125
Signal decrease [1]: 92.5% | ELISA signal with Free CD3e 62.5 pmol [2]: 12800 | ELISA signal with Free Fc 62.5 pmol [3]: 172000 | RLU, CD3 peptide [4]: 191000 RLU | S/N ratio CD3 peptide/non coating [4]: 161

B13: DXDU01_3#019 (antibody, human IgG1, V domains shown)
VH: B1 VH with R54K, A57G, E59T, P64E, S105A, L109V
VL: B6 VL
notes: IgG: VH joined to human IgG1 CH1-Fc; also called dBBDu125
RLU [6]: 5090 RLU | S/N ratio human CD137-Fc/Fc [7]: 23.8 | S/N ratio cyno CD137-Fc/Fc [8]: 1.56 | RLU [9]: 77800 RLU

B14: DXDU01_3#072 (antibody, human IgG1, V domains shown)
VH: B6 VH with K54R, Q55S, N56Q, N59A, E64P, P111G, F113Y
VL: B6 VL
notes: IgG: VH joined to human IgG1 CH1-Fc; also called dBBDu122
RLU [6]: 3350 RLU | S/N ratio human CD137-Fc/Fc [7]: 6.58 | S/N ratio cyno CD137-Fc/Fc [8]: 1.56 | RLU [9]: 14100 RLU

B15: DXDU01_3#094 (antibody, human IgG1, V domains shown)
VH: B6 VH with Q55G, L57A, N59A, E64P, S107A, T108G, V109G, A112G
VL: B6 VL
notes: IgG: VH joined to human IgG1 CH1-Fc; also called dBBDu121
RLU [6]: 19100 RLU | S/N ratio human CD137-Fc/Fc [7]: 10.2 | S/N ratio cyno CD137-Fc/Fc [8]: 8.09 | RLU [9]: 24200 RLU

B16: DXDU01_3#094 (antibody, human IgG1, V domains shown)
VH: B6 VH with Q55G, L57A, N59A, E64P, S107A, T108G, V109G, A112G
VL: B1 VL
notes: also called dBBDu121
Signal decrease [1]: 91.1% | ELISA signal with Free CD3e 62.5 pmol [2]: 9660 | ELISA signal with Free Fc 62.5 pmol [3]: 108000 | RLU, CD3 peptide [4]: 165000 RLU | S/N ratio CD3 peptide/non coating [4]: 141

B17: DADU01_3#018 (antibody, human IgG1, V domains shown)
VH: B6 VH with K54R, Q55A, L57S, E64P, A104S, S105A, V109L, A112S
VL: B1 VL
notes: also called dBBDu123
Signal decrease [1]: 92.3% | ELISA signal with Free CD3e 62.5 pmol [2]: 9020 | ELISA signal with Free Fc 62.5 pmol [3]: 117000 | RLU, CD3 peptide [4]: 182000 RLU | S/N ratio CD3 peptide/non coating [4]: 149

Source: patent US20240270846A1 (published 2024)
